Experimental data reported in US20240018240A1 (Hoffmann-La Roche, published 2024).
Substitutions are numbered along the chain they refer to. Names may count otherwise.

How the values were obtained:
[1] = target: T1, Human CD3ε stalk-Fc(knob)-Avi/CD3δ stalk-Fc(hole) (human); assay: SPR (Biacore T200, 25°C), TCB format, same conditions
T1 construct: Heterodimer of CD3 delta and CD3 epsilon ectodomains fused to a human Fc domain with knob-into-hole modifications and C-terminal Avi-tag; also called human CD3ε/δ; CD3ε/δ
Excerpt: (§1) For affinity measurements, TCB molecules were captured on a C1 sensorchip (GE Healthcare) surface with immobilized anti-Fc (P329G) IgG (an antibody that specifically binds human IgG₁ Fc (P329G); “anti-PG antibody”—see WO 2017/072210, incorporated herein by reference). The experimental setup is schematically depicted in FIG. 3. Capture IgG was coupled to the sensorchip surface by direct immobilization of around 400 resonance units (RU) using the standard amine coupling kit (GE Healthcare Life Sciences).
(§2) To analyze the interaction to CD3, TCB molecules were captured for 80 s at 25 nM with a flow rate of 10 μl/min. Human and cynomolgus CD3ε stalk-Fc(knob)-Avi/CD3δ stalk-Fc(hole) (CD3ε/δ, see SEQ ID NOs 24 and 25 (human) and SEQ ID NOs 26 and 27 (cynomolgus)) were passed at a concentration of 0.122-125 nM with a flow rate of 30 μl/min through the flow cells for 300 s. The dissociation was monitored for 800 s.
(§3) Kinetic constants were derived using the Biacore T200 Evaluation Software (GE Healthcare Life Sciences), to fit rate equations for 1:1 Langmuir binding by numerical integration. The half-life (t_{1/2}) of the interaction was calculated using the formula t_{1/2}=ln 2/koff.

[2] = target: T1, Human CD3ε stalk-Fc(knob)-Avi/CD3δ …; assay: SPR (Biacore T200, 25°C), TCB format, monovalent binding
Excerpt: as §1, §2, §3

[3] = target: T1, Human CD3ε stalk-Fc(knob)-Avi/CD3δ …; assay: SPR (Biacore T200, 25°C); TCB captured by anti-PG antibody on C1 chip, CD3ε/δ-Fc as analyte; 1:1 Langmuir fit
Excerpt: as §1, §2, §3

[4] = target: T2, Cynomolgus CD3ε stalk-Fc(knob)-Avi/CD3δ stalk-Fc(hole) (cynomolgus); assay: as above
T2 construct: Heterodimeric Fc fusion, soluble analyte in SPR; also called cynomolgus CD3ε/δ
Excerpt: as §1, §2, §3

[5] = target: T1, Human CD3ε stalk-Fc(knob)-Avi/CD3δ …; assay: SPR (Biacore T200, 25°C); TCB captured by anti-PG antibody on C1 chip, CD3ε/δ-Fc as analyte; t1/2 = ln 2/koff
Excerpt: as §1, §2, §3

[6] = target: T2, Cynomolgus CD3ε stalk-Fc(knob)-Avi/CD3δ …; assay: as above
Excerpt: as §1, §2, §3

[7] = target: T1, Human CD3ε stalk-Fc(knob)-Avi/CD3δ …; assay: SPR (Biacore T200); biotinylated human CD3ε/δ on SA chip, TCB injected at 2 µg/ml; normalised to anti-huIgG capture, relative to the non-stressed sample
Method: In order to assess the effect of the deamidation site removal and its effect on the stability of the antibodies, the anti-CD3 antibodies (in TCB format) were incubated for 14 days at 37° C., pH 7.4 and at 40° C., pH 6 and further analyzed by SPR for their binding capability to human CD3ε/δ. Samples stored at −80° C. pH 6 were used as reference. The reference samples and the samples stressed at 40° C. were in 20 mM His, 140 mM NaCl, pH 6.0, and the samples stressed at 37° C. in PBS, pH 7.4, all at a concentration of 1.0 mg/ml. After the stress period (14 days) samples in PBS were dialyzed back to 20 mM His, 140 mM NaCl, pH 6.0 for further analysis.
All SPR experiments were performed on a Biacore T200 instrument (GE Healthcare) at 25° C. with HBS-P+(10 mM HEPES, 150 mM NaCl pH 7.4, 0.05% Surfactant P20) as running and dilution buffer. Biotinylated human CD3ε/δ (see Example 3, SEQ ID NOs 24 and 25) as well as biotinylated anti-huIgG (Capture Select, Thermo Scientific, #7103262100) were immobilized on a Series S Sensor Chip SA (GE Healthcare, #29104992), resulting in surface densities of at least 1000 resonance units (RU). Anti-CD3 antibodies with a concentration of 2 μg/ml were injected for 30 s at a flow rate of 5 μl/min, and dissociation was monitored for 120 s. The surface was regenerated by injecting 10 mM glycine pH 1.5 for 60 s. Bulk refractive index differences were corrected by subtracting blank injections and by subtracting the response obtained from a blank control flow cell. For evaluation, the binding response 5 seconds after injection end was taken. To normalize the binding signal, the CD3 binding was divided by the anti-huIgG response (the signal (RU) obtained upon capture of the CD3 antibody on the immobilized anti-huIgG antibody). The relative binding activity was calculated by referencing each temperature stressed sample to the corresponding, non-stressed sample.

[8] = target: T1, Human CD3ε stalk-Fc(knob)-Avi/CD3δ …; assay: SPR (Biacore T200, 25°C), monovalent IgG format, same conditions
Method: (§4) SPR experiments were performed as described in Example 3, with the monovalent IgG molecules prepared in Example 6.
(§5) To analyze the interaction to CD3, IgG molecules were captured for 240 s at 50 nM with a flow rate of 5 μl/min. Human and cynomolgus CD3ε stalk-Fc(knob)-Avi/CD3δ-stalk-Fc(hole) were passed at a concentration of 0.061-250 nM with a flow rate of 30 μl/min through the flow cells for 300 s. The dissociation was monitored for 800 s.

[9] = target: T1, Human CD3ε stalk-Fc(knob)-Avi/CD3δ …; assay: SPR (Biacore T200, 25°C); monovalent IgG captured by anti-PG antibody on C1 chip, CD3ε/δ-Fc as analyte; t1/2 = ln 2/koff
Method: as §3, §4, §5

[10] = target: T2, Cynomolgus CD3ε stalk-Fc(knob)-Avi/CD3δ …; assay: as above
Method: as §3, §4, §5

[11] = target: T1, Human CD3ε stalk-Fc(knob)-Avi/CD3δ …; assay: SPR (Biacore T200, 25°C); monovalent IgG captured by anti-PG antibody on C1 chip, CD3ε/δ-Fc as analyte; 1:1 Langmuir fit; triplicates
Method: as §3, §4, §5

[12] = target: T2, Cynomolgus CD3ε stalk-Fc(knob)-Avi/CD3δ …; assay: as above
Method: as §3, §4, §5

B1: TYRP1 T-cell bispecific antibody (TCB) comprising anti-CD3 antibody P035.093 (bispecific antibody, human IgG1, kappa, L234A L235A)
heavy 1: not shown
heavy 2: QVQLVQSGAEVKKPGASVKVSCKASGFNIKDYFLHWVRQAPGQGLEWMGWINPDNGNTVYAQKFQGRVTMTADTSTSTVYMELSSLRSEDTAVYYCTRRDYTYEKAALDYWGQGTLVTVSSASTKGPSVFPLAPSSKSTSGGTAALGCLVEDYFPEPVTVSWNSGALTSGVHTFPAVLQSSGLYSLSSVVTVPSSSLGTQTYICNVNHKPSNTKVDEKVEPKSCDKTHTCPPCPAPEAAGGPSVFLFPPKPKDTLMISRTPEVTCVVVDVSHEDPEVKFNWYVDGVEVHNAKTKPREEQYNSTYRVVSVLTVLHQDWLNGKEYKCKVSNKALGAPIEKTISKAKGQPREPQVCTLPPSRDELTKNQVSLSCAVKGFYPSDIAVEWESNGQPENNYKTTPPVLDSDGSFFLVSKLTVDKSRWQQGNVFSCSVMHEALHNHYTQKSLSLSP
light 1: DIQMTQSPSSLSASVGDRVTITCRASGNIYNYLAWYQQKPGKVPKLLIYDAKTLADGVPSRFSGSGSGTDFTLTISSLQPEDVATYYCQHFWSLPFTFGQGTKLEIKRTVAAPSVFIFPPSDRKLKSGTASVVCLLNNFYPREAKVQWKVDNALQSGNSQESVTEQDSKDSTYSLSSTLTLSKADYEKHKVYACEVTHQGLSSPVTKSFNRGEC
light 2: EVQLLESGGGLVQPGGSLRLSCAASGFTFSSYAMNWVRQAPGKGLEWVSRIRSKYNNYATYYADSVKGRFTISRDDSKNTLYLQMNSLRAEDTAVYYCVRASNFPASYVSYFAYWGQGTLVTVSSASVAAPSVFIFPPSDEQLKSGTASVVCLLNNFYPREAKVQWKVDNALQSGNSQESVTEQDSKDSTYSLSSTLTLSKADYEKHKVYACEVTHQGLSSPVTKSFNRGEC
notes: 2+1 IgG CrossFab, inverted, with charge modifications; human IgG1 Fc with knob-into-hole and P329G LALA; also called P035.093 (in TCB format); TYRP1 TCB P035.093
**Q.** What does the source list for B1?
**A.** fold increase of affinity compared to CD3orig and CD3opt [1]: ≤ 10 fold; fold higher binding half-life than CD3orig and CD3opt [2]: ≤ 4 fold; Kd [3]: 0.41 nM; koff [3]: 0.00153 s⁻¹; kon [3]: 3.75e+06 M⁻¹ s⁻¹; Kd [4]: 0.21 nM; koff [4]: 0.00104 s⁻¹; kon [4]: 4.89e+06 M⁻¹ s⁻¹; t1/2 [5]: 7.55 min; t1/2 [6]: 11.1 min; binding activity [%], 2 weeks at pH 6.0/40°C [7]: 97%; binding activity [%], 2 weeks at pH 7.4/37°C [7]: 95%

B2: anti-CD3 antibody P035.093 in monovalent human IgG1 format (antibody)
heavy: not shown
chain: DKTHTCPPCPAPEAAGGPSVFLFPPKPKDTLMISRTPEVTCVVVDVSHEDPEVKFNWYVDGVEVHNAKTKPREEQYNSTYRVVSVLTVLHQDWLNGKEYKCKVSNKALGAPIEKTISKAKGQPREPQVCTLPPSRDELTKNQVSLSCAVKGFYPSDIAVEWESNGQPENNYKTTPPVLDSDGSFFLVSKLTVDKSRWQQGNVFSCSVMHEALHNHYTQKSLSLSP
light: B1 light 2
notes: also called P035.093 (in monovalent IgG format)
**Q.** Which results are given for B2?
**A.** fold increase of affinity compared to CD3orig [8]: ≤ 10 fold; t1/2 [9]: 8.25 min; t1/2 [10]: 11.8 min; Kd [11]: 0.456 nM; koff [11]: 0.0014 s⁻¹; kon [11]: 3.08e+06 M⁻¹ s⁻¹; Kd [12]: 0.224 nM; koff [12]: 0.000981 s⁻¹; kon [12]: 4.38e+06 M⁻¹ s⁻¹

B3: TYRP1 T-cell bispecific antibody (TCB) comprising anti-CD3 antibody CD3orig (bispecific antibody, human IgG1, kappa, L234A L235A)
heavy 1: not shown
heavy 2: B1 heavy 2
light 1: B1 light 1
light 2: B1 light 2 with S31T, A101H, S102G, P105G, A106N, Y111W
notes: 2+1 IgG CrossFab, inverted, with charge modifications; human IgG1 Fc with knob-into-hole and P329G LALA; also called CD3orig (in TCB format)
**Q.** Which Kd [3] does the source give for B3 here?
**A.** 6.54 nM

**Q.** And the koff [3]?
**A.** 0.00338 s⁻¹

**Q.** And the kon [3]?
**A.** 517000 M⁻¹ s⁻¹

**Q.** And the t1/2 [5]?
**A.** 3.42 min

**Q.** And the “binding activity [%], 2 weeks at pH 6.0/40°C” value [7]?
**A.** 95%

**Q.** And the “binding activity [%], 2 weeks at pH 7.4/37°C” value [7]?
**A.** 65%

B4: anti-CD3 antibody CD3orig in monovalent human IgG1 format (antibody)
heavy: not shown
chain: B2 chain
light: B1 light 2 with S31T, A101H, S102G, P105G, A106N, Y111W
notes: also called CD3orig (in monovalent IgG format)
**Q.** Which t1/2 [9] does the source give for B4 here?
**A.** 3.98 min

**Q.** And the Kd [11]?
**A.** 4.94 nM

**Q.** What about the koff [11] of the same binder?
**A.** 0.0029 s⁻¹

**Q.** And the kon [11]?
**A.** 587000 M⁻¹ s⁻¹

B5: TYRP1 T-cell bispecific antibody (TCB) comprising anti-CD3 antibody CD3opt (bispecific antibody, human IgG1, kappa, L234A L235A)
heavy 1: not shown
heavy 2: B1 heavy 2
light 1: B1 light 1
light 2: B1 light 2 with T28Q, A101H, S102T, N103T, A106S, F112Y, A113G
notes: 2+1 IgG CrossFab, inverted, with charge modifications; human IgG1 Fc with knob-into-hole and P329G LALA; also called CD3opt (in TCB format)
**Q.** With B5 as the binder, how does the Kd [3] read?
**A.** 4.3 nM

**Q.** What about the koff [3] of the same binder?
**A.** 0.00621 s⁻¹

**Q.** And the kon [3]?
**A.** 1.44e+06 M⁻¹ s⁻¹

**Q.** What about the Kd [4] of the same binder?
**A.** 0.86 nM

**Q.** What about the koff [4] of the same binder?
**A.** 0.0023 s⁻¹

**Q.** What about the kon [4] of the same binder?
**A.** 2.67e+06 M⁻¹ s⁻¹

**Q.** What about the t1/2 [5] of the same binder?
**A.** 1.86 min

**Q.** What about the t1/2 [6] of the same binder?
**A.** 5.02 min

**Q.** And the “binding activity [%], 2 weeks at pH 6.0/40°C” value [7]?
**A.** 97%

**Q.** What about the “binding activity [%], 2 weeks at pH 7.4/37°C” value [7] of the same binder?
**A.** 92%
